Experimental data reported in patent publication US20140298544A1, “Engineered PEP carboxylase variants for improved plant productivity” (PIONEER HI BRED INTERNATIONAL INC, priority 2011, published 2014).
Where two headings read alike, the source gives them in different places.

Columns and labels:
maize C4 PEPC [1] = target: T1, maize C4 PEPC (Zea mays, UniProt P04711, A239D/A736P/F800W/F886Y/H119R/H347Q/P482S/R192G/R495K/R556K/R807K/S350A/V555I); experiment: Kinetic and regulatory properties of PEPC variants (expressed in E. coli); format: biochemical; conditions: relative to wild type
T1 construct: thioredoxin; made in house; host or cells: E. coli Rosetta gami 2 BL21 DE3 pLYS S
Description: (§1) Libraries of modified PEPC polynucleotides were generated using recursive sequence recombination methods (Stemmer, Proc. Natl. Acad. Sci USA 91:10747-10751; Ness, et. al., Nature Biotechnology 20:1251-1255), also known as gene shuffling methods. These libraries incorporated diversity from related PEPC enzymes and also incorporated other designed and random changes. The starting polynucleotide sequence in which the diversity was incorporated was the maize C4 PEPC as shown in SEQ ID NO: 25. Each PEPC variant was expressed in E. coli as a thioredoxin fusion using the pET 32 expression vector (Novagen) with the E. coli expression strain Rosetta gami 2 BL21 DE3 pLYS S. Cultures expressing the variants were grown in 96-well culture blocks, lysed, and then PEPC activity and PEPC protein abundance were determined. The variants with high specific activity were subjected to further rounds of shuffling, for a total of 3 rounds. Examples of nucleotide and amino acid sequences of PEPC variants obtained with this method are SEQ ID NO: 4 to 24.
(§2) Detailed kinetic studies of PEPC variants were done in accordance with methods known in the art. See, for example, Tovar-Mendez et al. (2000) Plant Physiol. 123: 149-160; Tover-Mendez et al. (1998) Biochem. J. 332: 633-642.
(§3) PEPC variants had several improved properties in comparison with wild type PEPC, including greater affinity (lower S0.5 values) with respect to the bicarbonate substrate, greater Kcat/S0.5 values with the bicarbonate or PEP substrates, greater activation (lower A0.5 values) with […] or glycine as activators and greater Ki values with malate as inhibitor.

maize C4 PEPC [2] = experiment: as above; format: biochemical
Description: as §1, §2, §3

B1: 3D37-F3: maize C4 PEPC variant, 10 amino acid substitutions, SEQ ID NO: 10 (protein)
chain: MASTKAPGPGEKHHSIDAQLRQLVPGKVSEDDKLIEYDALLVDRFLNILQDLHGPSLREFVQECYEVSADYEGKGDTTKLGELGAKLTGLAPADAILVASSILHMLNLANLAEEVQIARRRRNSKLKKGGFADEGSATTESDIEETLKRLVSEVGKSPEEVFEALKNQTVDLVFTAHPTQSARRSLLQKNAGIRNCLTQLNAKDITDDDKQELDEALQREIQAAFRTDEIRRAQPTPQDEMRYGMSYIHETVWKGVPKFLRRVDTALKNIGINERLPYNVSLIRFSSWMGGDRDGNPRVTPEVTRDVCLLARMMAANLYIDQIEELMFELSMWRCNDELRVRAEELQSSAGSKVTKYYIEFWKQIPPNEPYRVILGHVRDKLYNTRERARHLLASGVSEISAESSFTSIEEFLEPLELCYKSLCDCGDKAIADGSLLDLLRQVFTFGLSLVKLDIRQESERHTDVIDAITTHLGIGSYREWSEDKRQEWLLSELKGKRPLLPPDLPQTDEIADVIGAFHVLAELPPDSFGPYIISMATAPSDVLAVELLQRECGIKQPLPVVPLFERLADLQSAPASVERLFSVDWYMDRIKGKQQVMVGYSDSGKDAGRLSAAWQLYRAQEEMAQVAKRYGVKLTLFHGRGGTVGRGGGPTHLAILSQPPDTINGSIRVTVQGEVIEFCFGEEHLCFQTLQRFTAATLEHGMHPPVSPKPEWRKLMDEMAVVATEEYRSVVVKEPRFVEYFRSATPETEYGRMNIGSRPAKRRPGGGITTLRAIPWIFSWTQTRFHLPVWLGVGAAFKWAIDKDVKNFQVLKEMYNEWPFFRVTLDLLEMVFAKGDPGIAGLYDELLVAEELKPFGKQLRDKYVETQQLLLQIAGHKDILEGDPYLKQGLVLRNPYITTLNVFQAYTLKRIRDPNFKVTPQPPLSKEFADENKPAGLVKLNPASEYPPGLEDTLILTMKGIAAGMQNTG
modifications: shuffled variant
- affinity (S0.5 value) for bicarbonate, in words (maize C4 PEPC [1]): higher affinity
- kcat/S0.5 Fold incr. (maize C4 PEPC [2]): 70.1 Fold incr.
- PEP, no activators kcat/S0.5 (maize C4 PEPC [2]; PEP substrate, no activators): 71500 M⁻¹ s⁻¹
- PEP, no activators kcat/S0.5 % wt (maize C4 PEPC [2]; PEP substrate, no activators, relative to wild type): 210 % wt
- PEP, with activators kcat/S0.5 (maize C4 PEPC [2]; PEP substrate, with activators): 5.01e+06 M⁻¹ s⁻¹
- PEP, with activators kcat/S0.5 % wt (maize C4 PEPC [2]; PEP substrate, with activators, relative to wild type): 205 % wt
- Glc-6-P Vmax Fold incr (maize C4 PEPC [2]; activator Glc-6-P): 7.2 Fold incr
- EC50 (maize C4 PEPC [2]; activator Glc-6-P, read-out: Glc-6-P A0.5): 4460 µM
- Glc-6-P A0.5 % wt (maize C4 PEPC [2]; activator Glc-6-P, relative to wild type): 66 % wt
- Glycine Vmax Fold incr (maize C4 PEPC [2]; activator glycine): 5.8 Fold incr
- EC50 (maize C4 PEPC [2]; activator glycine, read-out: Glycine A0.5): 930 µM
- Glycine A0.5 % wt (maize C4 PEPC [2]; activator glycine, relative to wild type): 26 % wt
- HCO3 S0.5 (maize C4 PEPC [2]; bicarbonate substrate): 0.0167 mM
- HCO3 kcat/S0.5 (maize C4 PEPC [2]; bicarbonate substrate): 3.512e+06 M⁻¹ s⁻¹
- HCO3 kcat/S0.5 % wt (maize C4 PEPC [2]; bicarbonate substrate, relative to wild type): 166 % wt
- Ki (maize C4 PEPC [2]; inhibitor malate): 2400 µM
- Malate Ki % wt (maize C4 PEPC [2]; inhibitor malate, relative to wild type): 600 % wt
- Ki for malate, in words (maize C4 PEPC [2]; relative to wild type): increased Ki
- activation by glucose-6-phosphate, in words (maize C4 PEPC [2]; relative to wild type): increased activation
- activation by glycine, in words (maize C4 PEPC [2]; relative to wild type): increased activation
